Experimental data reported in the supplement of paper PMC12764529.
± gives the half width of the 95% confidence interval.

What was measured:
[1] = folding stability dG unfold from chymotrypsin proteolysis; higher = more stable
How it was run: (§1)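 How resistant each design was to proteolysis was captured as K50, inferred by Bayesian fitting of sequencing counts. Unfolding free energy was then derived relative to a sequence-predicted unfolded-state K50 and a shared folded-state K50, per protease or combined. Digestion used trypsin and chymotrypsin at 11 threefold-diluted concentrations plus a no-protease condition, on mini-proteins under 80 residues without cysteine in a PA-tagged cDNA display construct. Designs were kept only when AlphaFold2 dimer inter-PAE was above 15.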

[2] = folding stability dG unfold from trypsin proteolysis; higher = more stable
How it was run: as §1

[3] = folding stability dG unfold (combined trypsin and chymotrypsin); higher = more stable
How it was run: as §1

Sequence	folding stability dG unfold [1] [kcal/mol]	folding stability dG unfold [2] [kcal/mol]	folding stability dG unfold [3] [kcal/mol]
SAMEIEIEPLEKEELLKLPGAEIRLFYFPDRVLAEILLPDGTPFFVEFDPSLKPEEVLEKLLKLLEELGSAG [r14_618_TrMRF]	4.29 ± 0.1	3.98 ± 0.18	4.23 ± 0.13
SAMEINIVLVAPPESPEALELAKEVAELVAKEIEEEGIPVEVEVEKIEFFRLPDGSIVVLIPIKVKPPESAG [r14_48_TrMRF]	3.27 ± 0.074	1.89 ± 0.1	2.63 ± 0.19
SAMEKVYIKVKFEVEGDPNGKEKKTIELIVENPDPNIGKEKLLEIAKEAVEKFAKENGYKVKISEVEIGSAG [r14_190_TrMRF]	4.22 ± 0.18	2.76 ± 0.29	4.29 ± 0.39
SAMELEFETDGSVSVEELIEEFKKAFPLVKEIEAEAEPIPYIPKYKVRFKIKLVPVPTPEEIEEFGKKKSAG [r14_645_TrMRF]	1.37 ± 0.21	1.02 ± 0.065	1.2 ± 0.17
SAMELRVESELFPDGRRRLVVLDPGDGAPVVTFIDLEPVDGGYRASITQIGPDPAVAERVARELGIPPESAG [r14_545_TrMRF]	1.17 ± 0.047	-0.191 ± 0.21	0.786 ± 0.082
SAMERVEIVVKVKVRPDMSLEELKERVERELRRLLEERGIELPEGAKITVEIVEETEDYVVVKVTIELPSAG [r14_735_TrROS_Hall]	2.91 ± 0.14	4.53 ± 0.24	4.4 ± 0.32
SAMETYEYPVTGDSATFTVPVPPDHIAKVTVHYPSGSTDTVVPPGVTTTFTVPSSNATVTITIYPRSALSAG [r14_882_JUSTAS]	1.53 ± 0.11	1.01 ± 0.025	1.34 ± 0.068
SAMEVIELEFPSVEELEAALKEKFNVEVEKLPDGTKRIKVEVDGELVLIEITDDKVRIRIISKEELEKLSAG [r14_402_TrROS_Hall]	1.53 ± 0.041	3.05 ± 0.095	2.42 ± 0.13
SAMEYTLEFDNLKGLTADEIEKAFRDEGYPDVKINGIRRNPDDWTITVHYGPGMPPNRVQNAIRKAIQESAG [r14_657_TrROS]	1.87 ± 0.091	1.21 ± 0.045	1.62 ± 0.11
SAMIEIPFSPDTPVEERLAMIKEAIEAAKAAGIEPKEITLIVPPDREDILEAVEEAGIPKERVKIKDQPSAG [r14_589_JUSTAS]	1.49 ± 0.057	0.789 ± 0.045	1.24 ± 0.07
SAMIKVVLPGAKLEKVEVFPDKTVKAVFVAKDHLVEIYFDPETGKALIRVYDGEKEYEFVLDVHPDDVISAG [r14_218_TrMRF]	4.8 ± 0.25	3.47 ± 0.31	4.33 ± 0.4
SAMILLIKIENKNDGKEFIIEITPNKITIYDKKTGKKYEITVDGNTITIKINGKTYKAKIKEVIPEEELSAG [r14_208_TrROS_Hall]	3.86 ± 0.096	3.23 ± 0.2	3.54 ± 0.49
SAMIVVPATFDDRTFVLRIERLPDGSYLVDVEDPDVSREAVVEALRELLPEDAKIVLDPETNLVYVSFDSAG [r14_370_TrMRF]	3.73 ± 0.052	3.34 ± 0.11	3.55 ± 0.086
SAMKIIKINGKEVLLVKNENGEILIFVKNKKTNKYYLVKIEIKDGKIKIVEVKPIKTYSLEELLKEELLSAG [r14_384_TrROS_Hall]	3.45 ± 0.023	3.22 ± 0.16	3.42 ± 0.11
SAMKIKIKVIGVLKPENHALIFLELDDSIPPEIPVVIRIKNENGEILEIPIEGNRALLVVDDRKIEILTSAG [r14_350_TrMRF]	1.67 ± 0.072	1.82 ± 0.08	1.73 ± 0.12
SAMKIKVPPGAEIITEDGEKIEPGQEVEVTDIEFDEETGEVHITVKIKNPETGEEIEEKVTIRFPKEEESAG [r14_258_TrROS_Hall]	0.977 ± 0.042	1.29 ± 0.11	1.09 ± 0.15
SAMKITEITYDKETNTITITVEIKLPPGVKKIKLKLFIDGAEIEEITMEVDEETGTVRITLKIRIPKDASAG [r14_244_TrROS_Hall]	6.06 ± 0.78	4.9 ± 0.88	> 6
SAMKKIKLSPEALELAKKLPPDYKVTEIKVEKLEDGTVVVTLTVEKTNENGEKEKVELTIVLDKDGKPVSAG [r14_420_TrROS_Hall]	0.0295 ± 0.46	0.619 ± 0.065	0.757 ± 0.37
SAMKKTETRVLEIRIGDYLAKIFLTEYEDGRVETLIEVYGPDPAVVEEVKDFLEKLDPDLEITEIVVLDSAG [r14_611_TrMRF]	2.23 ± 0.032	3.13 ± 0.072	2.68 ± 0.12
SAMKPFPAKEAIEQILEEMEDMPLPPGQEEVEFQIRLPDDGAPVQISIERNPGKWKIEIYVGNKPIWITSAG [r14_199_TrROS]	2.43 ± 0.14	1.7 ± 0.082	2.05 ± 0.12
